The values below come from patent US20240261333A1, “NOVEL TARGETS FOR ENHANCING ANTI-TUMOR IMMUNITY” (THE BROAD INSTITUTE, INC., priority 2021, published 2024).

The assay addresses T1, B3GNT2 (Homo sapiens, UniProt Q9NY97).
T1 construct: The respective ORFs of candidate genes [CD274 (NM_014143), MCL1 (NM_021960), JUNB (NM_002229), and B3GNT2 (NM_006577)] were synthesized; expressed in transfected cells; host or cells: A375 melanoma cells (lentiviral ORF overexpression)
T1 sequence (Q9NY97 1-397): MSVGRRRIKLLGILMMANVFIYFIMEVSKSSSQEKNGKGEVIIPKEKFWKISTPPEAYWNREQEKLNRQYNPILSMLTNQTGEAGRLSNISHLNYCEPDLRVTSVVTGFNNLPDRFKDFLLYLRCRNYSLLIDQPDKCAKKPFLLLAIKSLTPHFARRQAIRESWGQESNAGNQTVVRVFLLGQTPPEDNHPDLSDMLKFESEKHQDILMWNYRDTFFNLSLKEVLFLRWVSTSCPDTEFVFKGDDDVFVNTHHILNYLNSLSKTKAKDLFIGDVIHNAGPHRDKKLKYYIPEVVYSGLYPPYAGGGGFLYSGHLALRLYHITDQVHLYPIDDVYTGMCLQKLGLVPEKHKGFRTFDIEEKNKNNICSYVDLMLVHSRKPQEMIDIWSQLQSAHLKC
Description: Co-IP of FLAG-tagged B3GNT2 followed by mass spectrometry. Type of assay: cell-based. Also noted: C-term IgG / C-term flag: unit not given here. The note with it: Co-IP followed by mass spectrometry of B3GNT2; for C-term flag / C-term IgG: C-term tag; for C-term flag / N-term FLAG: FLAG pull-down; for C-term IgG / N-term IgG: IgG pull-down; for N-term FLAG / N-term IgG: N-term tag. The method, then:
Cells were plated in 10-cm cell culture dishes and grown to 60-80% confluency. For each condition, two biological replicates were harvested for co-IP. Cells were washed with PBS and 4 mL of lysis buffer (20 mM HEPES, 1% Triton X-100, 150 mM NaCl, 1 mM EDTA, and 10% glycerol) containing protease inhibitor cocktail was added. Cells were scraped and lysate was incubated at 4° C. under rotary agitation for 1 h. Lysate was centrifuged at 14,000×g for 10 min at 4° C. Supernatant was transferred to a new tube and an aliquot was taken as the input. […] For Western blots, 10 μg/mL Chicken Anti-FLAG (Aves labs ET-DY100) and IgY control (R&D Systems AB-101-C) antibodies were biotinylated (Thermo Fisher Scientific 90407) and added to the respective conditions. Lysates with antibodies were incubated at 4° C. under rotary agitation overnight. For each mL of lysate, 50 μL of Pierce Protein A/G Magnetic Beads (Mass spectrometry; Thermo Fisher Scientific 88803) or Pierce Streptavidin Magnetic Beads (Western blot; Thermo Fisher Scientific 88817) was washed twice with lysis buffer. Lysates with antibodies were added to the beads and incubated at 4° C. under rotary agitation for 4 h. Beads were washed with lysis buffer 3 times and resuspended in lysis buffer for storage. […] This solution was subjected to solid phase extraction to concentrate the peptides and remove unwanted reagents followed by injection onto a Shimadzu HPLC with fraction collector. Eight fractions were collected and after concentration were injected on a Waters NanoAcquity HPLC equipped with a self-packed Aeris 3 μm C18 analytical column 0.075 mm by 20 cm, (Phenomenex). Peptides were eluted using standard reverse-phase gradients. The effluent from the column was analyzed using a Thermo Orbitrap Elite mass spectrometer (nanospray configuration) operated in a data dependent manner for 54 minutes. […] Scaffold Q+S (Proteome Software) was used to provide consensus reports for the identified proteins.

B1: LIMA1 (protein)
chain: MESSPFNRRQWTSLSLRVTAKELSLVNKNKSSAIVEIFSKYQKAAEETNMEKKRSNTENLSQHFRKGTLTVLKKKWENPGLGAESHTDSLRNSSTEIRHRADHPPAEVTSHAASGAKADQEEQIHPRSRLRSPPEALVQGRYPHIKDGEDLKDHSTESKKMENCLGESRHEVEKSEISENTDASGKIEKYNVPLNRLKMMFEKGEPTQTKILRAQSRSASGRKISENSYSLDDLEIGPGQLSSSTFDSEKNESRRNLELPRLSETSIKDRMAKYQAAVSKQSSSTNYTNELKASGGEIKIHKMEQKENVPPGPEVCITHQEGEKISANENSLAVRSTPAEDDSPGDSQVKSEVQQPVHPKPLSPDSRASSLSESSPPKAMKKFQAPARETCVECQKTVYPMERLLANQQVFHISCFRCSYCNNKLSLGTYASLHGRIYCKPHFNQLFKSKGNYDEGFGHRPHKDLWASKNENEEILERPAQLANARETPHSPGVEDAPIAKVGVLAASMEAKASSQQEKEDKPAETKKLRIAWPPPTELGSSGSALEEGIKMSKPKWPPEDEISKPEVPEDVDLDLKKLRRSSSLKERSRPFTVAASFQSTSVKSPKTVSPPIRKGWSMSEQSEESVGGRVAERKQVENAKASKKNGNVGKTTWQNKESKGETGKRSKEGHSLEMENENLVENGADSDEDDNSFLKQQSPQEPKSLNWSSFVDNTFAEEFTTQNQKSQDVELWEGEVVKELSVEEQIKRNRYYDEDEDEE
B1: the C-term flag turned out to be 2, the “C-term IgG” value stood at 0, the “N-term FLAG” value was determined as 4 and the “N-term IgG” value came out at 3.

B2: MTCH2 (protein, UniProt Q9Y6C9 2-303, looked up)
Mitochondrial carrier homolog …: ADAASQVLLGSGLTILSQPLMYVKVLIQVGYEPLPPTIGRNIFGRQVCQLPGLFSYAQHIASIDGRRGLFTGLTPRLCSGVLGTVVHGKVLQHYQESDKGEELGPGNVQKEVSSSFDHVIKETTREMIARSAATLITHPFHVITLRSMVQFIGRESKYCGLCDSIITIYREEGILGFFAGLVPRLLGDILSLWLCNSLAYLVNTYALDSGVSTMNEMKSYSQAVTGFFASMLTYPFVLVSNLMAVNNCGLAGGCPPYSPIYTSWIDCWCMLQKEGNMSRGNSLFFRKVPFGKTYCCDLKMLI
For the molecule B2, the C-term flag is 2, the “C-term IgG” value was 0, the “N-term FLAG” value amounted to 4 and the “N-term IgG” value is 0.

B3: TMEM59 (protein)
chain: EAFDSVLGDTASCHRACQLTYPLHTYPKEEELYACQRGCRLFSICQFVDDGIDLNRTKLECESACTEAYSQSDEQYACHLGCQNQLPFAELRQEQLMSLMPKMHLLFPLTLVRSFWSDMMDSAQSFITSSWTFYLQADDGKIVIFQSKPEIQYAPHLEQEPTNLRESSLSKMSYLQMRNSQAHRNFLEDGESDGFLRCLSLNSGWILTTTLVLSVMVLLWICCATVATAVEQYVPSEKLSIYGDLEFMNEQKLNRYPASSLVVVRSKTEDHEEAGPLPTKVNLAHSEI
On to B3, for which the C-term flag came out at 0, the “C-term IgG” value is recorded as 0, the “N-term FLAG” value was 6 and the “N-term IgG” value amounted to 0.

B4: MTDH (protein, UniProt Q86UE4 1-582, looked up)
Protein LYRIC: MAARSWQDELAQQAEEGSARLREMLSVGLGFLRTELGLDLGLEPKRYPGWVILVGTGALGLLLLFLLGYGWAAACAGARKKRRSPPRKREEAAAVPAAAPDDLALLKNLRSEEQKKKNRKKLSEKPKPNGRTVEVAEGEAVRTPQSVTAKQPPEIDKKNEKSKKNKKKSKSDAKAVQNSSRHDGKEVDEGAWETKISHREKRQQRKRDKVLTDSGSLDSTIPGIENTITVTTEQLTTASFPVGSKKNKGDSHLNVQVSNFKSGKGDSTLQVSSGLNENLTVNGGGWNEKSVKLSSQISAGEEKWNSVSPASAGKRKTEPSAWSQDTGDANTNGKDWGRSWSDRSIFSGIGSTAEPVSQSTTSDYQWDVSRNQPYIDDEWSGLNGLSSADPNSDWNAPAEEWGNWVDEERASLLKSQEPIPDDQKVSDDDKEKGEGALPTGKSKKKKKKKKKQGEDNSTAQDTEELEKEIREDLPVNTSKTRPKQEKAFSLKTISTSDPAEVLVKNSQPIKTLPPATSTEPSVILSKSDSDKSSSQVPPILQETDKSKSNTKQNSVPPSQTKSETSWESPKQIKKKKKARRET
Consider B4, for which the C-term flag is recorded as 6, the “C-term IgG” value turned out to be 0, the “N-term FLAG” value was found to be 0 and the “N-term IgG” value is recorded as 0.

B5: DDX20 (protein)
chain: MAAAFEASGALAAVATAMPAEHVAVQVPAPEPTPGPVRILRTAQDLSSPRTRTGDVLLAEPADFESLLLSRPVLEGLRAAGFERPSPVQLKAIPLGRCGLDLIVQAKSGTGKTCVFSTIALDSLVLENLSTQILILAPTREIAVQIHSVITAIGIKMEGLECHVFIGGTPLSQDKTRLKKCHIAVGSPGRIKQLIELDYLNPGSIRLFILDEADKLLEEGSFQEQINWIYSSLPASKQMLAVSATYPEFLANALTKYMRDPTFVRLNSSDPSLIGLKQYYKVVNSYPLAHKVFEEKTQHLQELFSRIPFNQALVFSNLHSRAQHLADILSSKGFPAECISGNMNQNQRLDAMAKLKHFHCRVLISTDLTSRGIDAEKVNLVVNLDVPLDWETYMHRIGRAGRFGTLGLTVTYCCRGEEENMMMRIAQKCNINLLPLPDPIPSGLMEECVDWDVEVKAAVHTYGIASVPNQPLKKQIQKIERTLQIQKAHGDHMASSRNNSVSGLSVKSKNNTKQKLPVKSHSECGIIEKATSPKELGCDRQSEEQMKNSVQTPVENSTNSQHQVKEALPVSLPQIPCLSSFKIHQPYTLTFAELVEDYEHYIKEGLEKPVEIIRHYTGPGDQTVNPQNGFVRNKVIEQRVPVLASSSQSGDSESDSDSYSSRTSSQSKGNKSYLEGSSDNQLKDSESTPVDDRISLEQPPNGSDTPNPEKYQESPGIQMKTRLKEGASQRAKQSRRNLPRRSSFRLQTEAQEDDWYDCHREIRLSFSDTYQDYEEYWRAYYRAWQEYYAAASHSYYWNAQRHPSWMAAYHMNTIYLQEMMHSNQ
For B5, the C-term flag turned out to be 6, the “C-term IgG” value was determined as 0, the “N-term FLAG” value is reported as 0 and the “N-term IgG” value worked out at 0.

B6: ARG1 (protein)
chain: MSAKSRTIGIIGAPFSKGQPRGGVEEGPTVLRKAGLLEKLKEQECDVKDYGDLPFADIPNDSPFQIVKNPRSVGKASEQLAGKVAEVKKNGRISLVLGGDHSLAIGSISGHARVHPDLGVIWVDAHTDINTPLTTTSGNLHGQPVSFLLKELKGKIPDVPGFSWVTPCISAKDIVYIGLRDVDPGEHYILKTLGIKYFSMTEVDRLGIGKVMEETLSYLLGRKKRPIHLSFDVDGLDPSFTPATGTPVVGGLTYREGLYITEEIYKTGLLSGLDIMEVNPSLGKTPEEVTRTVNTAVAITLACFGLAREGNHKPIDYLNPPK
In the case of B6, the C-term flag came to 6, the “C-term IgG” value is recorded as 4, the “N-term FLAG” value was 8 and the “N-term IgG” value was found to be 4.

B7: NCCRP1 (protein)
chain: MEEVREGHALGGGMEADGPASLQELPPSPRSPSPPPSPPPLPSPPSLPSPAAPEAPELPEPAQPSEAHARQLLLEEWGPLSGGLELPQRLTWKLLLLRRPLYRNLLRSPNPEGINIYEPAPPTGPTQRPLETLGNFRGWYIRTEKLQQNQSWTVKQQCVDLLAEGLWEELLDDEQPAITVMDWFEDSRLDACVYELHVWLLAADRRTVIAQHHVAPRTSGRGPPGRWVQVSHVFRHYGPGVRFIHFLHKAKNRMEPGGLRRTRVTDSSVSVQLRE
Turning to B7, the C-term flag worked out at 4, the “C-term IgG” value is 0, the “N-term FLAG” value amounted to 4 and the “N-term IgG” value turned out to be 4.
